Measurements reported in the supplement of paper PMC9170038.

System: MS2 coat protein
Assay: apparent KD of MS2 coat protein; designed switch direction (-1 OFF switch, 1 ON switch): 1; higher = weaker reporter binding
Procedure, shortened: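 The reported apparent KD is a per-design median over clusters, from curve fits of normalised cluster fluorescence. Protein titrations used SNAP-549-labelled MS2 coat protein, doubled from 0.7 or 1.5 nM to 3 µM, in Tris-HCl pH 7.5 buffer with KCl, MgCl2, BSA, DTT, tRNA and Tween-20, with no input, 200 uM small-molecule ligand, or an oligonucleotide input. The RNA switches were transcribed on Illumina chips by stalled E. coli RNA polymerase.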

[1] = input ligand: microRNA oligo, concentration not stated
[2] = Eterna round: R95, input ligand: FMN 200 uM
[3] = Eterna round: R95, input ligand: microRNA oligo, concentration not stated
[4] = Eterna round: R95, input ligand: none

Row | Sequence | apparent KD of MS2 coat protein (input ligand: FMN 200 uM) [µM] | apparent KD of MS2 coat protein [1] [µM] | apparent KD of MS2 coat protein (input ligand: none) [µM] | apparent KD of MS2 coat protein [2] [µM] | apparent KD of MS2 coat protein [3] [µM] | apparent KD of MS2 coat protein [4] [µM]
1 | GGGAAACCUCAAGGAUAUGCUACCGUUUCGGUAGCAGAAGGUGAUCACAUGAGGAUCACCCAUGUAUGCAUGCGUGAGCGUGCU [JL SSNG1 3.57] (Eterna round: R96, puzzle: Same State NG 1) | 0.0426 | 0.0713 | 0.047 |  |  | 
2 | GGGAGACAUGAGGAUCACCCAUGUGGGAGGGAACGAGGAUAUGUAAGGAGAAAGAAUAGAACAGAAGGCGUAGGUG [JR_SS1_Sub021] (puzzle: Same State 1) |  |  |  | 0.0358 | 0.0555 | 0.0608
3 | GGGAGAGACGCAGGAUAUGGUGAGGAUUACCCACUAGAAGGGUGGACAUGAGAAUCGAACAUGAGGAUCACCCAUGUUCUGAGG (Eterna round: R96, puzzle: Same State NG 1) | 0.064 | 0.0443 | 0.066 |  |  | 
4 | GGGAGAGACGGAGGAUAUGGUGGGAGAUAGGGACUAGAAGGUUGGACAUGAGAAUCGAACAUGAGGAUCACCCAUGUUGGGAGG [iteri-3] (Eterna round: R96, puzzle: Same State NG 1) | 0.051 | 0.0283 | 0.0632 |  |  | 
5 | GGGAGAGGCGCAGGAUAUGGUGAGGAUCACCCACUAGAAGGGUGCACAUGAGAAUCGGACAUGAGGAUCACCCAUGUCCGGCGC (Eterna round: R96, puzzle: Same State NG 1) | 0.375 | 0.143 | 0.445 |  |  | 
6 | GGGCCAGCCUGUGCUGGGCCUUCGCAUGCACAUGAGGAUCACCCAUGUCGUGUACAUGCUUUUUGCUCGUCUUUAAA [Photon Torp-10] (puzzle: Sensor for hsa-mir-208a) |  |  |  | 0.0409 | 0.0126 | 0.0427
7 | GGGCCAGCUUGUGCUGGGCCUUCGCAUGCACAUGAGGAUCACCCAUGUCGUGUACAUGCUUGGUGCUCGUCUUUAAA [Photon Torp-12] (puzzle: Sensor for hsa-mir-208a) |  |  |  | 0.399 | 0.0157 | 0.266
8 | GGGCCAGCUUUUGCUGGGCCAAAGCUUGCACAUGAGGAUCACCCAUGUCGUGUACACGCUUCCUGCCCGUCUUGUUU [Photon Torp-20] (puzzle: Sensor for hsa-mir-208a) |  |  |  | 0.0265 | 0.0166 | 0.0294
9 | GGGCUCUACGGAGGAUAUUCAACACAUGAGGAUCACCCAUGUCAGCCUCCCUGAUCCAGGGAAGCGAAGAAGGCUGCGAGGACG [Eternabot solution 35] (Eterna round: R96, puzzle: Same State NG 2) | 0.0291 | 0.0218 | 0.0345 |  |  | 
10 | GGUAAACAUGAGGAUCACCCAUGUAAUAAUAUGGGAGGAUAUGGGAAUUAAUUAAUUAAACCAGAAGGCCUAAUUG [Mat - Same State 1 - D85] (Eterna round: R96, puzzle: Same State 1) | 0.032 | 0.104 | 0.135 |  |  | 
11 | GGUAAACAUGAGGAUCACCCAUGUAAUAAUAUGGGAGGAUAUGGGAAUUAAUUAAUUAAACCAGAAGGCCUAAUUG [Mat - Same State 1 - D85] (puzzle: Same State 1) |  |  |  |  | 0.167 | 
12 | GGUACCAACACAGGAUAUGCUAUCCUUUGGGUAGCAGAAGGGUGGUACAUGAGGAUCACCCAUGUGGUGCCAGGGCGUGAGCCC [JL SSNG1 1.95] (Eterna round: R96, puzzle: Same State NG 1) | 0.383 | 1.19 | 4.44 |  |  | 
13 | GGUAGGUUACUACCAAACAUGAGGAUCACCCAUGUAAAUGGGAAGGAUAUGGUACCUAUUUGGUACCAGAAGGUCUAAAUAAUU [Mat - Same State NG 3 - JL Mod - D94] (Eterna round: R96, puzzle: Same State NG 3) | 0.392 | 0.821 | 1.02 |  |  | 
14 | GGUAGGUUACUACCAAACAUGAGGAUCACCCAUGUAAGUGGGAAGGAUAUGGUACCGAAACGGUACCAGAAGGUCCAUAUAGUA [Mat - Same State NG 3 - JL Mod - D100] (Eterna round: R96, puzzle: Same State NG 3) | 0.324 | 0.564 | 1.1 |  |  | 
15 | GGUAGGUUACUACCAAACAUGAGGAUCACCCAUGUAAGUGGGAAGGAUAUGGUACCUAUUUGGUACCAGAAGGUCUAAUUAAUU [Fiskers NG3ss - 2] (Eterna round: R96, puzzle: Same State NG 3) | 0.444 | 0.0599 | 1.23 |  |  | 
16 | GGUAGGUUACUACCAAACAUGAGGAUCACCCAUGUAAGUGGGAAGGAUAUGGUACCUUUUAGGUACCAGAAGGUCCAUAUAUUU [JL Fiskers NG3ss - 2 mod 8] (Eterna round: R96, puzzle: Same State NG 3) | 0.231 | 0.847 | 1.14 |  |  | 
17 | GGUAGGUUACUACCAAACAUGAGGAUCACCCAUGUAGGUGGGAAGGAUAUGGUACCUUUUAGGUACCAGAAGGUCCAUACAAUU [NGss mod of JL's mod of Fisker] (Eterna round: R96, puzzle: Same State NG 3) | 0.318 | 0.154 | 0.203 |  |  | 
18 | GGUAGGUUACUACCAACACAUGAGGAUCACCCAUGUUAGUGGGAGGAUAUGGUACCUAUUUGGUACCAGAAGGUCCAGUUAAUU [Fiskers NG3ss - 15] (Eterna round: R96, puzzle: Same State NG 3) | 0.131 | 0.161 | 0.435 |  |  | 
19 | GGUAGGUUACUACCAAUCUACAUGAGGAUCACCCAUGUGUAGGAGGAUAUGGUACCUAUUUGGUACCAGAAGGCCUUAUUAAUU [Fiskers NG3ss - 10] (Eterna round: R96, puzzle: Same State NG 3) | 0.143 | 0.0818 | 0.0988 |  |  | 
20 | GGUAGGUUACUACCAUACAUGAGGAUCACCCAUGUAAAUGGGAAGGAUAUGGUACCUAUUUGGUACCAGAAGGUCCAAAUAAUU [Mat - Same State NG 3 - JL Mod - D96] (Eterna round: R96, puzzle: Same State NG 3) | 0.156 | 0.645 | 1.17 |  |  | 
21 | GGUAUCGGCGCAGGAUAUGCUAUCCUUUGGGUAGCAGAAGGGUGAACAUGAGGAUCACCCAUGUAGGUGCCAGGGCGUGAGCCC [JL SSNG1 1.81] (Eterna round: R96, puzzle: Same State NG 1) | 1.13 | 0.147 | 0.444 |  |  | 
22 | GGUCCAGCCUGAGCUGGACAAAAGCAUGUACAUGAGGAUCACCCAUGUCAUGUACAAGCUUUUUGCUCGUCUAAAAG [Mat - hsa-mir-208a - 95] (puzzle: Sensor for hsa-mir-208a) |  |  |  | 0.234 | 0.019 | 0.467
23 | GGUCCAGCCUGAGCUGGACAAAAGCAUGUACAUGAGGAUCACCCAUGUCAUGUACAAGCUUUUUGCUCGUCUUAAGA [Mat - hsa-mir-208a - 88] (Eterna round: R96, puzzle: Sensor for hsa-mir-208a) | 0.752 | 0.0154 | 0.712 |  |  | 
24 | GGUCCAGCCUGAGCUGGACAAAAGCAUGUACAUGAGGAUCACCCAUGUCAUGUACAAGCUUUUUGCUCGUCUUAAGA [Mat - hsa-mir-208a - 88] (puzzle: Sensor for hsa-mir-208a) |  |  |  | 1.06 | 0.0177 | 1.02
25 | GGUCCAGCCUGAGCUGGACAAAAGCGUGUACAUGAGGAUCACCCAUGUCAUGUACAAGCUUUUUGCUCGUCUUAAAA [JL mod - D87 - 6] (puzzle: Sensor for hsa-mir-208a) |  |  |  | 0.0802 | 0.0188 | 0.0949
26 | GGUCCAGCCUGAGCUGGACCACAGCAUGUACAUGAGGAUCACCCAUGUCAUGUACAUGCUUUUUGUUUGUCUUAAAA [Sensorship 11 - Jieux - Sensor for hsa-mir-208a] (puzzle: Sensor for hsa-mir-208a) |  |  |  | 0.0722 | 0.0327 | 0.0473
27 | GGUCCAGCCUGAGCUGGACGAAAGUAUGUACAUGAGGAUCACCCAUGUCAUGUAUAAGUUUUUUGUUCGUCUUGAAA [Sensorship 1 - Jieux - Sensor for hsa-mir-208a] (puzzle: Sensor for hsa-mir-208a) |  |  |  | 0.026 | 0.0142 | 0.0231
28 | GGUCCAGCUUUUGCUGGUCCUUCGCUUGCACAUGAGGAUCACCCAUGUCGUGUACAUGCUUCCUGCCCGUCUUUUUU [Photon Torp-17] (puzzle: Sensor for hsa-mir-208a) |  |  |  | 0.0344 | 0.0155 | 0.0391
29 | GGUCGGACUCACAUGAGGAUCACCCAUGUUGCGGAAACGCCAUAGGAUAUCUGUCCGAAAAGGUCAGAGAAGGGUGAACCGACC [Fiskers NG3ss - 65] (Eterna round: R96, puzzle: Same State NG 3) | 0.515 | 0.391 | 0.572 |  |  | 
30 | GGUCGGACUCACAUGAGGAUCACCCAUGUUGGCGAAAGCCGACAGGAUAUCUGUCCGAAAAGGUCAGAGAAGGGUUAACCGACC [Fiskers NG3ss - 61] (Eterna round: R96, puzzle: Same State NG 3) | 0.397 | 0.326 | 0.159 |  |  | 
